Reference: patent US20060063231, “Compositions and methods for protein production” (Sangamo BioSciences, Inc., published 2006)

Target: 2392/10 ZFP-VP16 fusion (Artificial Sequence)
Experiment: cell_activity; Epo secretion, 2392/10-7 CHO cells; additional three-fold over CMV promoter
Source text: Three different erythropoietin (Epo)-expressing constructs were constructed. In the first, Epo expression was controlled by a CMV promoter fused to a β-globin intron (CMV). In the second, Epo expression was controlled by a CMV promoter containing ten upstream copies of the 2392/10 binding site, fused to a β-globin intron (CMVz10, Example 6). In the third, Epo expression was controlled by a SRα promoter with six additional copies of the 2392/10 binding site immediately upstream of the promoter (SRαZ6, Example 5). The three constructs were transiently transfected into either parental DG44 CHO cells or the ZFP-expressing 2392/10-7 cell line. After 24 hours, Epo secretion was measured by ELISA.

B1: CMVz10 promoter target-site insert (dsDNA)
DNA 1: ACGCGTTCATTCCACAGCTCTCATTCCACAGCTCTCATTCCACAGCTCTCATTCCACAGCTCTCATTCCACAGCTCTCATTCCACAGCTCTCATTCCACAGCTCTCATTCCACAGCTCTCATTCCACAGCTCTCATTCCACAGTCACGCGT
DNA 2: ACGCGTGACTGTGGAATGAGAGCTGTGGAATGAGAGCTGTGGAATGAGAGCTGTGGAATGAGAGCTGTGGAATGAGAGCTGTGGAATGAGAGCTGTGGAATGAGAGCTGTGGAATGAGAGCTGTGGAATGAGAGCTGTGGAATGAACGCGT
For B1, which activity is on record?
The activity was 3 fold activation.
